Consider 3 molecules from US20060239990A1 (published 2006).

Assay [1] has as its target mouse STAT3 (endogenous in GT1-7 cells and VSMC, or expressed from mouse STAT3 pcDNA3 in HEK293 cells) (mouse, UniProt P42227 2-770). In words: immunoprecipitation with anti-STAT3 antibody from GT1-7 cell extracts with or without leptin (100 nM), immunoblot with anti-PRMT-2 antibody. The method, then: A mouse hypothalamic cell line, GT1-7, was established that expressed both STAT3 and PRMT-2 (FIG. 21B), and used as a cell model for the study of leptin signaling. To further examine whether leptin stimulated endogenous interaction between PRMT-2 and STAT3, extracts from the cells that were untreated or treated with mouse leptin (100 nM) were subjected to immunoprecipitation with anti-STAT3 antibody, followed by immunoblotting with anti-PRMT-2 antibody. […] However, treatment with leptin enhanced that amount PRMT-2 that co-precipitated with STAT3 (FIG. 21B, lane 3). PRMT-2 was not detectable in immunoprecipitates obtained with preimmune rabbit IgG (FIG. 21B, lane 1).

Assay [2] has as its target T1, mouse retinoblastoma protein (RB), endogenous in MEFs (mouse, UniProt P13405 2-921).
T1 sequence (looked up): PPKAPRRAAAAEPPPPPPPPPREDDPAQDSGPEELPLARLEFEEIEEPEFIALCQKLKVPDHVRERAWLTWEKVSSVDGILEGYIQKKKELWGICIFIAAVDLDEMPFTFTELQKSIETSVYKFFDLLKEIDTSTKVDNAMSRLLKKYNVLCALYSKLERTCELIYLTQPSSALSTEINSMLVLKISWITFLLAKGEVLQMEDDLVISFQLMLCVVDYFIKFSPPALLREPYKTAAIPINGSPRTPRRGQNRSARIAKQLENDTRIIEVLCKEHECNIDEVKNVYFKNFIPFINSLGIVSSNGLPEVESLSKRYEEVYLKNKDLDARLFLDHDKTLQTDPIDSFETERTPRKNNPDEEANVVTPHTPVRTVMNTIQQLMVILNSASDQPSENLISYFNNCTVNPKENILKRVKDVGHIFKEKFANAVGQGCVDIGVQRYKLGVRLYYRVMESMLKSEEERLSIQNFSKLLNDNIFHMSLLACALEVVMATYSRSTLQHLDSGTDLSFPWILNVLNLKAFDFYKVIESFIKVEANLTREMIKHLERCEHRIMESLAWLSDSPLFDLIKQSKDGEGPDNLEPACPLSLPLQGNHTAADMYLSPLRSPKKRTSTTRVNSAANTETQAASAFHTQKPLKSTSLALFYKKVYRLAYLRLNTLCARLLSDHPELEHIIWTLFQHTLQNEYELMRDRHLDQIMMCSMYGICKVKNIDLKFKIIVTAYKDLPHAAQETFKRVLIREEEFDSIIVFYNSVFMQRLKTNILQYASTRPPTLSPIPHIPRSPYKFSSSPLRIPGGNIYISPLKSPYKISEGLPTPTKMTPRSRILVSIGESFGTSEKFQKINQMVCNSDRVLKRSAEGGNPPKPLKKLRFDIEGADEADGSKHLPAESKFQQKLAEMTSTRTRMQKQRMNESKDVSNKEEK
In words: cell-based or functional assay.

A further assay addresses T2, RelA (p65) in 293 cells (UniProt Q04206 1-551).
T2 construct: also called endogenous p65
Briefly: immunoprecipitation with anti-HA antibody from transfected 293 cells, immunoblot for p65. From the text: (§1) To map IκB-α domains that interacted with PRMT2, 293 cells were transfected with HA-tagged PRMT2 (FIG. 5C) and His-tagged derivatives of the indicated IκB-α expression vectors (FIG. 5B) as indicated. 24 hrs later cells were harvested in cell lysis buffer and cell lysates were immunoprecipitated with agarose-conjugated antibody to His (IκB-α) (FIG. 5D, lanes 1-4) and HA (PRMT2) (FIG. 5D, lanes 5-6), fractionated by SDS-PAGE and analyzed by immunoblotting with antibody to HA to detect PRMT2 ((FIG. 5D lanes 1, 2 and lanes 5, 6) and His (FIG. 5D, lanes 3, 4). To map the region of PRMT2 that interacted with endogenous IκB-α and p65, 293 cells were transfected with HA-tagged PRMT2 (FIG. 5C) derivatives as indicated. Cells were harvested 24 hrs after transfection in cell lysis buffer, immunoprecipitated with agarose-conjugated antibody to HA to detect PRMT2 and derivatives (FIG. 5E, lanes 7-15), fractionated by SDS-PAGE and analyzed by immunoblotting with antibody to p65 (FIG. 5E, lanes 7-9), IκB-α (FIG. 5E, lanes 10-12) or HA (FIG. 5E, lanes 13-15).
A polyclonal antibody to recombinant PRMT2 was used to examine the association between endogenous PRMT2 and IκB-α in vivo. […] The domain of IκB-α required for association with PRMT2 was mapped using in vivo immunoprecipitation assays where HA-tagged PRMT2 was coexpressed with truncation mutants of His-tagged IκB-α (FIG. 5B) in 293 cells. The ankyrin domain was both necessary and sufficient for this association (FIG. 5D, lanes 1 and 2). The domain of PRMT2 that interacted with endogenous IκB-α was mapped by immunoprecipitation following expression HA-tagged PRMT2 truncation mutants (FIG. 5C). […] When the ratios of PRMT2 or PRMT2-A binding to IκB-α were compared, both interacted with IκB-α with similar affinity.
A general note: Immunoblotting shows a protein as a band on a membrane.

The target of assay [3] is T3, IκB-α, endogenous in 293 cells (human, UniProt P25963 1-317).
T3 construct: also called endogenous IκB-α
T3 sequence (looked up): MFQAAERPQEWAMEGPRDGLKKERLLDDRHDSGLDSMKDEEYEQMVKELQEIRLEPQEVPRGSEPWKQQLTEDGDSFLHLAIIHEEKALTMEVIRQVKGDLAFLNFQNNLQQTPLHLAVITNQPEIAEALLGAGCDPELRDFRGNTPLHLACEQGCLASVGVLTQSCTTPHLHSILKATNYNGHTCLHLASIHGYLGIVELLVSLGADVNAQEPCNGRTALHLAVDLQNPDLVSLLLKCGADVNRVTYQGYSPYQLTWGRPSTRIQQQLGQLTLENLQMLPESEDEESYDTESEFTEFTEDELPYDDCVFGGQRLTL
In words: immunoprecipitation with anti-HA antibody from transfected 293 cells, immunoblot for endogenous IκB-α.
Excerpt: as §1
(§2) A polyclonal antibody to recombinant PRMT2 was used to examine the association between endogenous PRMT2 and IκB-α in vivo. […] The domain of IκB-α required for association with PRMT2 was mapped using in vivo immunoprecipitation assays where HA-tagged PRMT2 was coexpressed with truncation mutants of His-tagged IκB-α (FIG. 5B) in 293 cells. […]

The target in assay [4] is T3, IκB-α, endogenous in 293 cells. In words: immunoprecipitation with anti-HA antibody from transfected 293 cells, immunoblot for IκB-α.
Excerpt: as §1, §2

T2 sequence (Q04206 whole entry): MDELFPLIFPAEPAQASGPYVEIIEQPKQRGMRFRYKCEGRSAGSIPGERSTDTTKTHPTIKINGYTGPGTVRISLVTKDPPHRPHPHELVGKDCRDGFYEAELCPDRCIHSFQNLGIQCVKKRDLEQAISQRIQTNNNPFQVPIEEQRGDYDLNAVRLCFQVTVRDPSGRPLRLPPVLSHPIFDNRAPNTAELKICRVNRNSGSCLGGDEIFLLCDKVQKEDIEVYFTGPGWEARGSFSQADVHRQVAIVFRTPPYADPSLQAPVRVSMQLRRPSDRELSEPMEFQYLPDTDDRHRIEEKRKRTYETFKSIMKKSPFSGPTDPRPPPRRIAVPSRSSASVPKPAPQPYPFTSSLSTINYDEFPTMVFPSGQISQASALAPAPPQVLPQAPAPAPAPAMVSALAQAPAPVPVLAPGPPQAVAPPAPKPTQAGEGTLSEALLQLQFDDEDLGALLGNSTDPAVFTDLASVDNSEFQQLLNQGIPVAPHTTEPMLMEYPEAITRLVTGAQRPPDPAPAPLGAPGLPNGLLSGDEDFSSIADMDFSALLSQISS
mouse STAT3 (endogenous in GT1-7 cells and VSMC, or expressed from mouse STAT3 pcDNA3 in HEK293 cells), sequence (P42227 2-770 limits assumed): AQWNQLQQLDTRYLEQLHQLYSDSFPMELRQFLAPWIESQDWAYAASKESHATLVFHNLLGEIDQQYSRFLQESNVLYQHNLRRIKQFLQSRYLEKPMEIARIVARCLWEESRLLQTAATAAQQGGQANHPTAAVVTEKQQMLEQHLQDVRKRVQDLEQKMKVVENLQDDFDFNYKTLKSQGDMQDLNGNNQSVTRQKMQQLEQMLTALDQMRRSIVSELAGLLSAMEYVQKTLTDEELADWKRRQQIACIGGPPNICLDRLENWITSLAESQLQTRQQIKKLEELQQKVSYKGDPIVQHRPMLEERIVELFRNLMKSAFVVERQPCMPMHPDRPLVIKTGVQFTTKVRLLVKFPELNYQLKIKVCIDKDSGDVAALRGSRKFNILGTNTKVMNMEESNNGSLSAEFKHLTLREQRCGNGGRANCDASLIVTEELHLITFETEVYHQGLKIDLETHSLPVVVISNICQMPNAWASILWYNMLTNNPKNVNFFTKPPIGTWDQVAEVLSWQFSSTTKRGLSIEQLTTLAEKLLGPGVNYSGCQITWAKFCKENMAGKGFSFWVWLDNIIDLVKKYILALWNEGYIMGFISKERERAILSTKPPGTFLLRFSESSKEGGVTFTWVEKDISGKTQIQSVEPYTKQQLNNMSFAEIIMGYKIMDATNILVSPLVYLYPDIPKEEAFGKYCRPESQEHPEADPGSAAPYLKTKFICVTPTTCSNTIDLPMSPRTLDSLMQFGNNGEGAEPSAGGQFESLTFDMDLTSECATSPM

B1: mouse PRMT2 (untagged; endogenous in NIH3T3 cells, MEFs, GT1-7 cells and VSMC, or expressed from mouse PRMT2 cDNA in HEK293 cells) (enzyme, UniProt Q9R144 1-448, looked up)
chain: MEAPGEGPCSESQVIPVLEEDPVDYGCEMQLLQDGAQLQLQLQPEEFVAIADYTATDETQLSFLRGEKILILRQTTADWWWGERAGCCGYIPANHLGKQLEEYDPEDTWQDEEYFDSYGTLKLHLEMLADQPRTTKYHSVILQNKESLKDKVILDVGCGTGIISLFCAHHARPKAVYAVEASDMAQHTSQLVLQNGFADTITVFQQKVEDVVLPEKVDVLVSEWMGTCLLFEFMIESILYARDTWLKGDGIIWPTTAALHLVPCSAEKDYHSKVLFWDNAYEFNLSALKSLAIKEFFSRPKSNHILKPEDCLSEPCTILQLDMRTVQVPDLETMRGELRFDIQKAGTLHGFTAWFSVYFQSLEEGQPQQVVSTGPLHPTTHWKQTLFMMDDPVPVHTGDVVHGFCCVTKKSGMEKAHVCLSELGCHVRTRSHVSTELETGSFRSGGDS
notes: also called endogenous PRMT2
Take B1: the binding result in assay [1] is “binds”. Further, the “E2F reporter activity (E2F4B-Luc) in MEFs” value in assay [2] is about 3 fold.

B2: HA-tagged PRMT2-A (alternative splice variant, first 218 amino acids of PRMT2) (enzyme)
chain: MATSGDCPRSESQGEEPAECSEAGLLQEGVQPEEFVAIADYAATDETQLSFLRGEKILILRQTTADWWWGERAGCCGYIPANHVGKHVDEYDPEDTWQDEEYFGSYGTLKLHLEMLADQPRTTKYHSVILQNKESLTDKVILDVGCGTGIISLFCAHYARPRAVYAVEASEMAQHTGQLVLQNGFADIITVYQQKVEDVVLPEKVDVLVSEWMGTCLL
notes: Expressed by transfection in 293 cells; not shown: HA tag at the C-terminus
Consider B2, for which the binding result is “no binding” in the assay with RelA (p65) in 293 cells and “binds” in assay [3].

B3: HA-tagged PRMT2-N (first 95 amino acids of PRMT2) (enzyme)
chain: MATSGDCPRSESQGEEPAECSEAGLLQEGVQPEEFVAIADYAATDETQLSFLRGEKILILRQTTADWWWGERAGCCGYIPANHVGKHVDEYDPED
notes: as for B2
In the case of B3, the binding result (in the assay with RelA (p65) in 293 cells; in assay [4]) was “no binding” throughout.
